Laboratory results as given in patent publication US20150307617A1 (Genentech, published 2015).

T1: human OX40 expressed on the cell surface (Hut78-hOX40 cells; human T cells) (human, UniProt P43489 29-277)
T1 construct: Hut78 T cell line stably transfected or retrovirally transduced with human OX40, or native OX40 on human peripheral blood T cells; also called huOX40; Hut78-OX40
T1 sequence: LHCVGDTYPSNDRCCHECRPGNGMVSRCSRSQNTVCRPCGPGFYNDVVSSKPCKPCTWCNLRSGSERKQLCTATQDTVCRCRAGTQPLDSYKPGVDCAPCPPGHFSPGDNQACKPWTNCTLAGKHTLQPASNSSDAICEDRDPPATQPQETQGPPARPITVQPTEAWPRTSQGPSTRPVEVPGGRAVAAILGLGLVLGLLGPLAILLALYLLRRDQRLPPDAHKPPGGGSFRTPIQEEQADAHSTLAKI

T2: rat OX40 on T cells (rat, UniProt P15725 20-271)
T2 construct: whole, on cells
T2 sequence (looked up): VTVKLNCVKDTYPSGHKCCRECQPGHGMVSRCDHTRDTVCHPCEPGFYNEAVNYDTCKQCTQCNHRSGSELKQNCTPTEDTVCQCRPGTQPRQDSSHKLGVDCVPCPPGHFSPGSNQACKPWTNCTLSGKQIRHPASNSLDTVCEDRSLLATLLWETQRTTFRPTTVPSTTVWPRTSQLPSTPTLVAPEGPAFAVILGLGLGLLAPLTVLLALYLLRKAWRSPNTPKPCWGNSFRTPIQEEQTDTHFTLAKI

T3: mouse OX40 on T cells (mouse, UniProt P47741 20-272)
T3 construct: whole, on cells
T3 sequence (looked up): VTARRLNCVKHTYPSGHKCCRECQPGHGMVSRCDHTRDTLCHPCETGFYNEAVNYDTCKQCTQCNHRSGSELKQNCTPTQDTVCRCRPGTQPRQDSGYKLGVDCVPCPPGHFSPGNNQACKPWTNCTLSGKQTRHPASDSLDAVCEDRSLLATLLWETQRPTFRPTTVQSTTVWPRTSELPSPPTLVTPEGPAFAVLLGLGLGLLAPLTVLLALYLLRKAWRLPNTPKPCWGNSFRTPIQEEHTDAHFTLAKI


Legend:
[1] = target: T1, human OX40 expressed on the cell …; test: flow cytometry titration of OX40L-flag on Hut78-hOX40 cells, 3-fold dilutions from 10 ug/mL, detected with anti-flag-Alexa Fluor 555
Method: (§1) After 30 min of incubation at 4 C, cells were washed twice in Wash Buffer (PBS/0.5% FBS/2 mM EDTA), followed by data acquisition on FACSCantoII flow cytometer (BD). Data were then analyzed by Flowjo program (TreeStar) and the mean fluorescent intensity (MFI) was captured. […] A titration of OX40L-flag binding was carried out in a similar fashion, except that OX40L-flag was titrated 3 fold down starting from 10 ug/mL.

[2] = target: T1, human OX40 expressed on the cell …; test: flow cytometry competition on Hut78-hOX40 cells: OX40L-flag titrated first, then 200 ng/mL 1A7.gr.1-Alexa Fluor 647 added; readout is the MFI of 1A7.gr.1
Method: as §1
After 30 min of incubation at 4 C, cells were washed twice in Wash Buffer, followed by data acquisition on FACSCantoII flow cytometer (BD).

[3] = target: T4, cynomolgus monkey OX40 on T cells (cynomolgus monkey); test: flow cytometry, Alexa Fluor 647-labeled antibody on cynomolgus monkey T cells, average (± SD)
T4 construct: whole, on cells; also called cynomolgus OX40
Method: (§2) Cells were blocked with 10% human, cynomolgus monkey, rat or mouse serum respectively in PBS for 15 minutes at 4° C. and plated in a 96 well plate at the equivalent of 100 μL of whole blood per reaction.

[4] = target: T2, rat OX40 on T cells; test: flow cytometry, Alexa Fluor 647-labeled antibody on peripheral blood T cells
[5] = target: T3, mouse OX40 on T cells; test: as above
[6] = target: T4, cynomolgus monkey OX40 on T cells; test: flow cytometry, Alexa Fluor 647-labeled antibody on cynomolgus monkey T cells, average in molar units
Method: as §2

[7] = target: T4, cynomolgus monkey OX40 on T cells; test: flow cytometry, Alexa Fluor 647-labeled antibody on cynomolgus monkey T cells, assay 1
Method: as §2

[8] = target: T4, cynomolgus monkey OX40 on T cells; test: flow cytometry, Alexa Fluor 647-labeled antibody on cynomolgus monkey T cells, assay 2
Method: as §2

Row | Binder | EC50 (read off the curve) [1] | IC50 (read off the curve) [2] | EC50 [3] | binding result [4] | binding result [5] | EC50 [6] | EC50 [7] | EC50 [8]
1 | Human OX40L-flag (ligand, UniProt P23510 51-183, looked up, Made at Genentech; not shown: flag tag) QVSHRYPRIQSIKVQFTEYKKEKGFILTSQKEDEIMKVQNNSVIINCDGFYLISLKGYFSQEVNISLHYQKDEEPLFQLKKVRSVNSLMVASLTYKDKVYLNVTTDNTSLDDFHVNGGELILIHQNPGEFCVL | ~0.2 µg/mL | ~0.2 µg/mL | – | – | – | – | – | –
2 | 1A7.gr.1 (antibody, V domains shown, human IgG1; 125I-labeled (radioligand assay) or Alexa Fluor 647-labeled (flow cytometry) in some assays; also called mab 1A7.gr.1; MOXR0916) VH: EVQLVQSGAEVKKPGASVKVSCKASGYTFTDSYMSWVRQAPGQGLEWIGDMYPDNGDSSYNQKFRERVTITRDTSTSTAYLELSSLRSEDTAVYYCVLAPRWYFSVWGQGTLVTVSS VL: DIQMTQSPSSLSASVGDRVTITCRASQDISNYLNWYQQKPGKAPKLLIYYTSRLRSGVPSRFSGSGSGTDFTLTISSLQPEDFATYYCQQGHTLPPTFGQGTKVEIK | – | – | 0.142 µg/mL | no binding (tested: titrated from 9 µg/mL) | no binding (tested: titrated from 9 µg/mL) | 0.946 nM | 0.143 µg/mL | 0.142 µg/mL
